Measurements taken from US12110325B2, “TM4SF5-targeting humanized antibody and use thereof” (KOREA RESEARCH INSTITUTE OF BIOSCIENCE AND BIOTECHNOLOGY, priority 2022, dated 2024).

Experiments:
[1] = system: sorafenib-resistant SNU449T7 cells; assay: Sorafenib-resistant SNU449T7 cell xenograft model; type: in vivo, mouse
Method: SNU449T7 cells were treated with sorafenib (1 μM to 10 μM) for 2 weeks, and the surviving cells (sorafenib-resistant SNU449T7; 1×10^6 cells) were mixed with Matrigel on ice and then injected subcutaneously into the backs of the mice. After 11 days, when tumor volumes reached about 100 mm^3, the tumor-bearing mice were randomized into control and treatment groups (n=7 per group). Ab27 (250 μg/mouse) or sorafenib (400 μg/mouse) was intraperitoneally (i.p.) injected at 2- or 3-day intervals for 2 or 3 weeks (8 times in total).
(§1) Body weight and tumor volume were measured before injection of the antibody or drug. Tumor volumes were calculated using the formula width^2×length/2). Tumor masses were lysed as described in the literature for immunoblot analysis (J Clin Invest, 2008. 118 (4): pp. 1354-66) or tumor masses were fixed in 10% formalin and embedded in paraffin.
The antitumor activity of Ab27 was evaluated in a sorafenib-resistant SNU449T7 cell xenograft model. TM4SF5-overexpressing SNU449T7 cells were treated with sorafenib (1 μM to 10 μM; 3 culture medium changes per week) for 3 weeks, and the surviving sorafenib-resistant cells (1×10^6) were mixed with Matrigel and then subcutaneously injected into the flanks of the nude mice. Ab27 (250 μg/mouse) or sorafenib (400 μg/mouse) was injected at 2- or 3-day intervals (8 times in total).

SNU-398 cells = assay: SNU-398 liver cancer xenograft (endogenous TM4SF5); type: in vivo; details: Ab27 300, cetuximab 300 or sorafenib 600 μg/mouse/dose
Method: as §1
(§2) Formalin-fixed and paraffin-embedded 6-μm-thick tissue sections from xenograft tumors were processed for immunohistochemistry analysis as per the standard protocol. Sections were stained with anti-Ki67 antibody (SP6; Abcam) using the peroxidase technique. The proliferative index (%) was determined by calculating the number of Ki67^+ cells relative to the total number of cells, which consisted of at least 1,000 cells per field. Five randomly selected fields from tumor sections per mouse were analyzed using ImageJ software.

SNU449T7 cells [2] = assay: Combination treatment in SNU449T7 xenograft mouse model; type: in vivo; details: for inhibited tumor growth relative to the control: Ab27 270, sorafenib 1,200, doxorubicin 20 μg/mouse/dose i.p. twice per week, 6 times in total, alone or combined
Method: For combination treatment, SNU449T7 (1×10^6) cells were subcutaneously injected into the mice. When volumes reached about 100 mm^3, the tumor-bearing mice were randomized into control and treatment groups (n=6 per group). Ab27 (270 μg/mouse), sorafenib (1,200 μg/mouse), or doxorubicin (20 μg/mouse) was intraperitoneally (i.p.) injected twice per week (6 times in total). For the combination treatment group, Ab27 and sorafenib or doxorubicin were intraperitoneally (i.p.) injected at 6-hour intervals. Sorafenib was dissolved in DMSO/Cremophor EL/PBS (1:1:8).
as §1
SNU449T7 (1×10^6) cells were mixed with Matrigel and subcutaneously injected into the back, and then Ab27 (270 μg/mouse/dose); sorafenib (1,200 μg/mouse/dose); doxorubicin (20 μg/mouse/dose); a combination of Ab27 (270 μg/mouse/dose) and sorafenib (1,200 μg/mouse/dose) or a combination of doxorubicin (20 μg/mouse/dose); or saline (control) were intraperitoneally injected twice per week (6 times in total) into nude mice (n=6 per group) bearing SNU449T7 xenografts.

TM4SF5 [3] = biological target: T1, TM4SF5 (Homo sapiens, UniProt O14894); assay: Flow cytometry of SNU449Cp and SNU449Tp cells; type: cell-based
T1 construct: expressed in transfected cells; SNU449Cp (TM4SF5-low control)
T1 sequence (O14894 1-197): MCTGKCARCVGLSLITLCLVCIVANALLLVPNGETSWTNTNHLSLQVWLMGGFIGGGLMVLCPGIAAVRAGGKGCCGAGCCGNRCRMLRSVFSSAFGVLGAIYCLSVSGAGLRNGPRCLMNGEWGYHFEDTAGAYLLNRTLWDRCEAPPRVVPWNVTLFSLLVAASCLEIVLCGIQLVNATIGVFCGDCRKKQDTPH
Method: To analyze antibody binding to TM4SF5, flow cytometry was performed using SNU449Cp, SNU449Tp, HEK293E, and CT26 cells. HCT-116, SNU-398, HT-29, C8161, and SNU-638 cells that had been transiently transfected with either a TM4SF5-specific siRNA or a negative control siRNA were also analyzed. Cells (2×10^5) were incubated with Ab27 or Ab27-hz9 at 0.03 μg to 0.3 μg at 4° C. for 45 minutes in 100 μL PBS containing 1% BSA. The cells were washed twice with 1% BSA/PBS, followed by a 30-minute incubation with fluorescein isothiocyanate (FITC)-conjugated anti-human IgG (Fc-specific; Pierce, Rockford, Ill., USA). Viable propidium iodide (PI)^− cells were analyzed for antibody binding using FACSCalibur (BD Immunocytometry System, San Jose, Calif., USA). To generate hemagglutinin (HA)-tagged mouse TM4SF5-expression vector, mouse TM4SF5 cDNA (Accession No. NM_029360.3) was subcloned into pCMV-HA-N vector (Clonetech, Mountain View, Calif.). PC3 cells transiently transfected with HA-tagged mouse TM4SF5-expression vector were incubated with Ab27 and anti-HA, and then analyzed by flow cytometry.

TM4SF5 [4] = biological target: T1, TM4SF5; assay: Immunocytochemistry of SNU449Cp and SNU449Tp cells; type: cell-based; details: SNU449Tp versus SNU449Cp; Ab27-hz9 with a stronger level
Method: SNU-449Cp, SNU-449Tp, and HepG2 and HT-29 cells that had been transiently transfected with TM4SF5-specific siRNA were plated on coverslips and incubated for 48 hours. The cells were then fixed for 20 minutes in methanol and permeabilized with acetone for 1 minute. After blocking in 1% normal horse serum, the cells were incubated with Ab27 or Ab27-hz9 ([…]), followed by a corresponding secondary antibody conjugated to FITC. The cells were counterstained with 4,6-diamidino-2-phenylindole (DAPI; Sigma) to visualize nuclei. Immunofluorescent images were acquired under a confocal microscope (LSM 510 META, Carl Zeiss, Jena, Germany).

TM4SF5 [5] = biological target: T1, TM4SF5; assay: Internalization analysis of SNU449Tp cells by flow cytometry; type: cell-based; details: Ab27 0.3 μg/mL, Ab27-hz9 0.2 μg/mL
Method: Cell-surface binding and subsequent internalization of Ab27 and Ab27-hz9 were analyzed using flow cytometry. Briefly, cells were incubated with Ab27 or Ab27-hz9 at 4° C. for 45 minutes, washed to remove unbound antibodies, and then either warmed to 37° C. to allow internalization or maintained at 4° C. Cells were transferred to ice-cold buffer to stop the occurrence of internalization and stained with FITC-conjugated anti-human IgG. PI^− cells were analyzed by flow cytometry. The relative levels of Ab27 or Ab27-hz9 bound to the cell surface were calculated as the shift in the fluorescence signal of the antibody occupancy relative to that detected at the beginning of the internalization period.
For the internalization analysis of SNU449Tp cells with Ab27 and Ab27-hz9, Ab27 (0.3 μg/mL) and Ab27-hz9 (0.2 μg/mL) were used to maintain a similar extent of initial antibody binding to TM4SF5.

SNU449T7 cells [6] = assay: SNU449T7 liver cancer xenograft, Ab27-hz9 versus Ab27 and cetuximab; type: in vivo, mouse
Method: SNU449T7 (1×10^7) cells were subcutaneously injected into the flanks of mice. When volumes reached about 100 mm^3, the tumor-bearing mice were randomized into control and treatment groups (n=6 per group). […] Normal human IgG was injected as a negative control.
as §1, §2
The antitumor efficacy of Ab27-hz9 was evaluated in the SNU449T7 xenograft model. SNU449T7 cells (3×10^6) were subcutaneously injected into the flanks of mice.

[7] = system: SNU449Tp cell-derived tumors; assay: In vivo tumor targeting, DyLight 755-labeled antibody, SNU449T7 xenograft; parameters: species or system mouse; details: DyLight 755 label, 96 hours after injection; control IgG mostly in the liver
Method: (§3) Ab27, Ab27-hz9, and normal human IgG were conjugated with DyLight 755 and purified using a DyLight 755 Antibody Labeling Kit (Thermo Scientific) according to the manufacturer's instructions. When the size of the tumor formed by SNU449T7 or SNU-398 cell reached about 100 mm^3, 70 μg of dye-labeled antibody was injected into the tail vein of nude mice. The distribution profiles of the antibody were quantified by in vivo fluorescence using IVIS imaging system at 0, 24, 48, 72, and 96 hours after antibody injection. The tumor was removed at 96 hours after injection to determine the distribution of the DyLight755-labeled antibody in tumor tissues.
In order to validate the tumor-targeting ability of anti-TM4SF5 antibodies, the distributions of Ab27 and Ab27-hz9 after injection into SNU449Tp xenograft model were determined. SNU449T7 cells were subcutaneously injected into the flanks of the nude mice so as to prepare mice bearing tumors. Ab27, Ab27-hz9, and control human IgG were labeled with a fluorescent dye (DyLight 755) and […] injected into nude mice bearing SNU449Tp cell-derived tumors. After 96 hours, the distribution of the dye-labeled antibody was quantified by measuring the total photon flux of the fluorescence.

[8] = system: endogenous TM4SF5-expressing tumors; assay: In vivo tumor targeting, DyLight 755-labeled antibody, SNU-398 xenograft; parameters: species or system mouse; details: DyLight 755 label, tail vein, 96 hours; control IgG mostly in the liver
Method: as §3
Additionally, in vivo tumor targeting of Ab27 and Ab27-hz9 were examined using a SNU-398 xenograft mouse model. To confirm in vivo tumor targeting of Ab27 and Ab27-hz9 in endogenous TM4SF5-expressing liver cancer xenografts, SNU-398 cells were subcutaneously injected into the flanks of the nude mice so as to prepare mice bearing tumors. Ab27, Ab27-hz9, and control human IgG were labeled with DyLight 755 were injected into the tail veil of tumor-bearing mice, and fluorescence was measured after 96 hours.

## CNC(=O)c1cc(Oc2ccc(NC(=O)Nc3ccc(Cl)c(C(F)(F)F)c3)cc2)ccn1 [sorafenib]
[1]; Ab27 250 μg/mouse or sorafenib 400 μg/mouse
  immunoblot of xenograft tumor tissues: phosphorylation of FAK, c-Src, p27Kip1, STAT3 and expression of BMI1: relatively moderately decreased the phosphorylation of FAK, c-Src, p27^KiP1, and STAT3
[1]; sorafenib 400 μg/mouse/dose, 8 times in total
  tumor growth (in words): did not remarkably decrease tumor growth
SNU-398 cells
  Ki67 proliferation index of tumor sections: significantly decreased
SNU-398 cells; 6 times in total, normal human IgG control
  inhibited tumor growth (tumor volume): 51%
SNU449T7 cells [2]
  inhibited tumor growth relative to the control: 42%
SNU449T7 cells [2]; sorafenib 1,200 μg/mouse/dose
  phosphorylation of STAT3 in tumor lysates: abolished the phosphorylation of STAT3

## COc1cccc2c1C(=O)c1c(O)c3c(c(O)c1C2=O)C[C@@](O)(C(=O)CO)C[C@@H]3O[C@H]1C[C@H](N)[C@H](O)[C@H](C)O1 [doxorubicin]
SNU449T7 cells [2]
  inhibited tumor growth relative to the control: 26%

B1: Ab27-hz9: humanized monoclonal antibody of Ab27; VH SEQ ID NO: 7, VL SEQ ID NO: 8; IGHV1-2 and IGKV3-20 frameworks (antibody, V domains shown)
VH: QVQLVQSGAEVKKPGASVKVSCKASGYTFTDYEMHWVRQAPGQGLEWMGAIDPETGGTAYNQKFKGRVTMTADKSISTAYMELSRLRSDDTAVYYCARPYLGYWGQGTLVTVSS
VL: EIVLTQSPGTLSLSPGERATLSCRSSQSLVHSNGNTYLHWYQQKPGQAPRLLIYKVSNRFSGIPDRFSGSGSGTDFTLTISRLEPEDFAVYYCFQGSHIPLTFGQGTKVEIK
modifications: VH; VL
notes: humanized monoclonal antibody of Ab27; IGHV1-2 and IGKV3-20 frameworks
TM4SF5 [3]
  binding to SNU449Tp (high-TM4SF5) versus SNU449Cp (TM4SF5-low) cells: bound more efficiently to SNU449Tp cells than to SNU449Cp cells
TM4SF5 [4]
  immunofluorescence staining of membrane edges: stained the membrane edges of SNU449Tp cells, but not those of SNU449Cp cells
TM4SF5 [5]
  residual level of cell surface-bound antibody: significantly reduced
SNU449T7 cells [6]; 300 μg/mouse/dose
  level of proliferative Ki67+ cells in tumor sections versus control mice: significantly lower
SNU449T7 cells [6]; 300 μg/mouse/dose i.p. 3 or 4 times per week, 12 times in total, normal human IgG control
  inhibited tumor growth (tumor volume): about 66%
SNU449T7 cells [6]; 300 μg/mouse/dose, 12 times in total
  body weight: without affecting body weight
[7]
  distribution of dye-labeled antibody (total photon flux): predominantly localized to the tumors
[8]
  distribution of dye-labeled antibody (fluorescence): substantially localized in endogenous TM4SF5-expressing tumors
